Where no end group is shown, it is not given here. The star is where a group is joined. 6FAM = O=C1OC2(c3ccc(O)cc3Oc3cc(O)ccc32)c2cc(C(=O)*)ccc21
What was measured:
[1] = biological target: T1, TPR domain of T. cruzi PEX5 (347–668) (T. cruzi, UniProt Q4DPQ9 347-668); experiment: fluorescence polarisation; saturation binding: 10 nM 6-FAM-PTS1 titrated with TcPEX5 (0.1–250 nM); 10 mM Hepes pH 7.5, 100 mM NaCl, 5% DMSO; one-site fit; conditions: both partners purified
T1 construct: PEX5, Trypanosoma cruzi, C-terminal tetratricopeptide repeat (TPR) domain, residues 347-668; codon-optimised synthetic gene in the petHSU vector; The His-SUMO tag was cleaved on the column with dtUD1 protease; also called TcPEX5; TcPEX5 (TPR domain); source: E. coli BL21 (DE3), purified (HiTrap IMAC, on-column tag cleavage, SEC S75); not shown: His6, N-terminal, cleaved
T1 sequence (looked up): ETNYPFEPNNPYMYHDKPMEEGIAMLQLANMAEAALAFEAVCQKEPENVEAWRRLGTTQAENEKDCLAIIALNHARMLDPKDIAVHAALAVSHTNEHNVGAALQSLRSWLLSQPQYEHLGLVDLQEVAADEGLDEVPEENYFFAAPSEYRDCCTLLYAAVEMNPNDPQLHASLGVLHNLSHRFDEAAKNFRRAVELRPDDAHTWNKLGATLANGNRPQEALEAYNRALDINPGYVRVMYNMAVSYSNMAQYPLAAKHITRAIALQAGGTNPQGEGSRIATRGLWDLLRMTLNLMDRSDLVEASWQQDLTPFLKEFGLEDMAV

[2] = biological target: T1, TPR domain of T. cruzi PEX5 (347–668); experiment: fluorescence polarisation; competitive: increasing unlabeled PTS1 added to 30 nM TcPEX5 (f0 = 0.8) and 10 nM 6-FAM-PTS1; Ki by curve fitting; conditions: both partners purified

Binder | Kd [1] [nM] | Ki [2] [nM]
6FAM-YQSKL (pentapeptide representing peroxisomal targeting signal 1 (PTS1); also called 6-FAM-PTS1; FAM-PTS1) [6-FAM-labelled PTS1 (6-FAM-YQSKL)] | 21 | –
YQSKL (pentapeptide representing PTS1, without the label; also called PTS1 alone; unlabeled PTS peptide) [unlabeled PTS1 peptide] | – | 126
